The target in this test is Ca^2+-CaM pre-bound to the mammalian Cav1.2 IQ peptide (rat | human, UniProt P0DP29 1-149). Put plainly: ITC; Ca2+; CaM pre-bound to Cav1.2 IQ.

What is called Kd is a measure of binding affinity in units of concentration. On to SWQAAIDAARQAKLMGS [mammalian NSCaTE_(Cav1.2) peptide], for which the affinity, expressed as Kd, was 1800 nM.

The record behind these values is PMC3634016 (2013).
